Source: the supplement of paper PMC9233669
Variants at the floor of the assay were thinned out.

Legend:
biotinyl-Phe-oxazolone = test: self-aminoacylation, catalytic enhancement (BFO) (fold over background); higher = more active; k-Seq, kA / k0A0; sequences stand for … in GGGAAUGGAUCCACAUCUACGAAUUC…UUCACUGCAGACUUGACGAAGCUG
Method in brief: (§1)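 Working in 50 μL HEPES/NaCl/KCl/MgCl2/CaCl2 buffer with 5% acetonitrile at pH 6.9–7.0, mutagenized RNA pools (0.43 μM; 21-nt variable region) were reacted with 2–1250 μM of each biotinyl-aminoacyl-oxazolone for 90 minutes at room temperature. Streptavidin capture followed, with quantification by triplicate qPCR and Illumina sequencing. Catalytic enhancement is reported as median kA over the uncatalyzed rate, the low-activity peak of a bimodal Gaussian fit to the data.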

biotinyl-Ile-oxazolone = test: self-aminoacylation, catalytic enhancement (BIO) (fold over background); higher = more active; k-Seq, kA / k0A0; sequences stand for … in GGGAAUGGAUCCACAUCUACGAAUUC…UUCACUGCAGACUUGACGAAGCUG
Method in brief: as §1

biotinyl-Met-oxazolone = test: self-aminoacylation, catalytic enhancement (BMO) (fold over background); higher = more active; k-Seq, kA / k0A0; sequences stand for … in GGGAAUGGAUCCACAUCUACGAAUUC…UUCACUGCAGACUUGACGAAGCUG
Method in brief: as §1

biotinyl-Val-oxazolone = test: self-aminoacylation, catalytic enhancement (BVO) (fold over background); higher = more active; k-Seq, kA / k0A0; sequences stand for … in GGGAAUGGAUCCACAUCUACGAAUUC…UUCACUGCAGACUUGACGAAGCUG
Method in brief: as §1

biotinyl-Leu-oxazolone = test: self-aminoacylation, catalytic enhancement (BLO) (fold over background); higher = more active; k-Seq, kA / k0A0; sequences stand for … in GGGAAUGGAUCCACAUCUACGAAUUC…UUCACUGCAGACUUGACGAAGCUG
Method in brief: as §1

biotinyl-Trp-oxazolone = test: self-aminoacylation, catalytic enhancement (BWO) (fold over background); higher = more active; k-Seq, kA / k0A0; sequences stand for … in GGGAAUGGAUCCACAUCUACGAAUUC…UUCACUGCAGACUUGACGAAGCUG
Method in brief: as §1

Sequence “CCACAUUUUAAGCAAUCGGUC [Fam1B.1 aminoacylation ribozyme variant]” has a self-aminoacylation (biotinyl-Phe-oxazolone) of 1.19, a self-aminoacylation (biotinyl-Ile-oxazolone) of 1.33 and a self-aminoacylation (biotinyl-Met-oxazolone) of 0.901. It also gave a self-aminoacylation (biotinyl-Val-oxazolone) of 1.24, a self-aminoacylation (biotinyl-Leu-oxazolone) of 1.29 and a self-aminoacylation (biotinyl-Trp-oxazolone) of 0.864.
Sequence “AAGUUUGCUAUCAGUCGCAAG [Fam3.1 aminoacylation ribozyme variant]” has a self-aminoacylation (biotinyl-Phe-oxazolone) of 1.37, a self-aminoacylation (biotinyl-Ile-oxazolone) of 0.794 and a self-aminoacylation (biotinyl-Met-oxazolone) of 0.865. For the same sequence, the self-aminoacylation (biotinyl-Val-oxazolone) was 0.931, the self-aminoacylation (biotinyl-Leu-oxazolone) was 0.733 and the self-aminoacylation (biotinyl-Trp-oxazolone) was 0.615.
“AUUACCCUGGUCAACGAGAGA [Fam2.1 aminoacylation ribozyme variant]” was tested, and the self-aminoacylation (biotinyl-Phe-oxazolone) was 0.544, the self-aminoacylation (biotinyl-Ile-oxazolone) was 0.807 and the self-aminoacylation (biotinyl-Met-oxazolone) was 0.82. It also gave a self-aminoacylation (biotinyl-Val-oxazolone) of 0.904, a self-aminoacylation (biotinyl-Leu-oxazolone) of 0.664 and a self-aminoacylation (biotinyl-Trp-oxazolone) of 0.896.
With “AAUAUUGCUAAUAGUCGCAAG [Fam3.1 aminoacylation ribozyme variant]” the self-aminoacylation (biotinyl-Phe-oxazolone) was 2.4, the self-aminoacylation (biotinyl-Ile-oxazolone) was 1.86 and the self-aminoacylation (biotinyl-Met-oxazolone) was 1.68. It also gave a self-aminoacylation (biotinyl-Val-oxazolone) of 1.76, a self-aminoacylation (biotinyl-Leu-oxazolone) of 1.7 and a self-aminoacylation (biotinyl-Trp-oxazolone) of 1.95.
“CAACACCUCAAGCAAUCGGUC [Fam1B.1 aminoacylation ribozyme variant]” showed a self-aminoacylation (biotinyl-Phe-oxazolone) of 1.3, a self-aminoacylation (biotinyl-Ile-oxazolone) of 0.947 and a self-aminoacylation (biotinyl-Met-oxazolone) of 1.27. For the same sequence, the self-aminoacylation (biotinyl-Val-oxazolone) was 0.914, the self-aminoacylation (biotinyl-Leu-oxazolone) was 1.1 and the self-aminoacylation (biotinyl-Trp-oxazolone) was 0.997.
“CUACUUCAAACAAUCAGCCUG [Fam1A.1 aminoacylation ribozyme variant]” gave a self-aminoacylation (biotinyl-Phe-oxazolone) of 21, a self-aminoacylation (biotinyl-Ile-oxazolone) of 0.99 and a self-aminoacylation (biotinyl-Met-oxazolone) of 0.824. The self-aminoacylation (biotinyl-Val-oxazolone) was 1.17, the self-aminoacylation (biotinyl-Leu-oxazolone) was 1.01 and the self-aminoacylation (biotinyl-Trp-oxazolone) was 9.56.
Sequence “AUUCACCGAGGUCGUCGGGUG [Fam2.2 aminoacylation ribozyme variant]” has a self-aminoacylation (biotinyl-Phe-oxazolone) of 11.1, a self-aminoacylation (biotinyl-Ile-oxazolone) of 2.55 and a self-aminoacylation (biotinyl-Met-oxazolone) of 3.16. The self-aminoacylation (biotinyl-Val-oxazolone) was 2.55, the self-aminoacylation (biotinyl-Leu-oxazolone) was 3.03 and the self-aminoacylation (biotinyl-Trp-oxazolone) was 3.
Work on “AAUACCAUGGUCAUCGAGUGA [Fam2.1 aminoacylation ribozyme variant]” yielded a self-aminoacylation (biotinyl-Phe-oxazolone) of 16.2, a self-aminoacylation (biotinyl-Ile-oxazolone) of 3.19 and a self-aminoacylation (biotinyl-Met-oxazolone) of 6.12. For the same sequence, the self-aminoacylation (biotinyl-Val-oxazolone) was 2.89, the self-aminoacylation (biotinyl-Leu-oxazolone) was 6.22 and the self-aminoacylation (biotinyl-Trp-oxazolone) was 7.7.
In the case of “AAGUUUGCUAAUAGUCCCCAG [Fam3.1 aminoacylation ribozyme variant]”, the self-aminoacylation (biotinyl-Phe-oxazolone) is reported as 1.27, the self-aminoacylation (biotinyl-Ile-oxazolone) is reported as 1 and the self-aminoacylation (biotinyl-Met-oxazolone) is reported as 1.01. The self-aminoacylation (biotinyl-Val-oxazolone) was 0.901, the self-aminoacylation (biotinyl-Leu-oxazolone) was 0.928 and the self-aminoacylation (biotinyl-Trp-oxazolone) was 1.69.
Work on “AAGUUUGCUAAUAGUUGUAAG [Fam3.1 aminoacylation ribozyme variant]” yielded a self-aminoacylation (biotinyl-Phe-oxazolone) of 2.23, a self-aminoacylation (biotinyl-Ile-oxazolone) of 1.29 and a self-aminoacylation (biotinyl-Met-oxazolone) of 1.48. For the same sequence, the self-aminoacylation (biotinyl-Val-oxazolone) was 1.28, the self-aminoacylation (biotinyl-Leu-oxazolone) was 1.12 and the self-aminoacylation (biotinyl-Trp-oxazolone) was 1.55.
Work on “AAGUUUGCUAAUAGUCAGAAG [Fam3.1 aminoacylation ribozyme variant]” yielded a self-aminoacylation (biotinyl-Phe-oxazolone) of 2.61, a self-aminoacylation (biotinyl-Ile-oxazolone) of 0.943 and a self-aminoacylation (biotinyl-Met-oxazolone) of 1.01. It also gave a self-aminoacylation (biotinyl-Val-oxazolone) of 0.937, a self-aminoacylation (biotinyl-Leu-oxazolone) of 0.808 and a self-aminoacylation (biotinyl-Trp-oxazolone) of 2.22.
With “CCACAUUUCAAGUAAUCGGUC [Fam1B.1 aminoacylation ribozyme variant]” the self-aminoacylation (biotinyl-Phe-oxazolone) was 2.1, the self-aminoacylation (biotinyl-Ile-oxazolone) was 1.21 and the self-aminoacylation (biotinyl-Met-oxazolone) was 1.03. It also gave a self-aminoacylation (biotinyl-Val-oxazolone) of 1.05, a self-aminoacylation (biotinyl-Leu-oxazolone) of 1.14 and a self-aminoacylation (biotinyl-Trp-oxazolone) of 1.77.
In the case of “AUCCACCUAGGUCAUGGGGUG [Fam2.2 aminoacylation ribozyme variant]”, the self-aminoacylation (biotinyl-Phe-oxazolone) is reported as 56.5, the self-aminoacylation (biotinyl-Ile-oxazolone) is reported as 3.54 and the self-aminoacylation (biotinyl-Met-oxazolone) is reported as 5.64. For the same sequence, the self-aminoacylation (biotinyl-Val-oxazolone) was 3.77, the self-aminoacylation (biotinyl-Leu-oxazolone) was 6.65 and the self-aminoacylation (biotinyl-Trp-oxazolone) was 5.9.
For “AAGUUUGCUAAUAGUCUAAAG [Fam3.1 aminoacylation ribozyme variant]”, the self-aminoacylation (biotinyl-Phe-oxazolone) was 5.62, the self-aminoacylation (biotinyl-Ile-oxazolone) was 1.28 and the self-aminoacylation (biotinyl-Met-oxazolone) was 0.959. The self-aminoacylation (biotinyl-Val-oxazolone) was 1.28, the self-aminoacylation (biotinyl-Leu-oxazolone) was 0.882 and the self-aminoacylation (biotinyl-Trp-oxazolone) was 1.9.
“AUUCACCCAGGUCAUCGGAUG [Fam2.2 aminoacylation ribozyme variant]” gave a self-aminoacylation (biotinyl-Phe-oxazolone) of 0.458, a self-aminoacylation (biotinyl-Ile-oxazolone) of 0.889 and a self-aminoacylation (biotinyl-Met-oxazolone) of 0.669. The self-aminoacylation (biotinyl-Val-oxazolone) was 0.988, the self-aminoacylation (biotinyl-Leu-oxazolone) was 0.895 and the self-aminoacylation (biotinyl-Trp-oxazolone) was 1.07.
“UCUACCCUGGUCAUCGAGUGA [Fam2.1 aminoacylation ribozyme variant]” gave a self-aminoacylation (biotinyl-Phe-oxazolone) of 14.6, a self-aminoacylation (biotinyl-Ile-oxazolone) of 5.18 and a self-aminoacylation (biotinyl-Met-oxazolone) of 10.4. For the same sequence, the self-aminoacylation (biotinyl-Val-oxazolone) was 5.79, the self-aminoacylation (biotinyl-Leu-oxazolone) was 9.36 and the self-aminoacylation (biotinyl-Trp-oxazolone) was 12.6.
“AUUACCAUGGUCAUCGAGUCA [Fam2.1 aminoacylation ribozyme variant]” showed a self-aminoacylation (biotinyl-Phe-oxazolone) of 0.683, a self-aminoacylation (biotinyl-Ile-oxazolone) of 0.821 and a self-aminoacylation (biotinyl-Met-oxazolone) of 0.695. The self-aminoacylation (biotinyl-Val-oxazolone) was 0.778, the self-aminoacylation (biotinyl-Leu-oxazolone) was 0.823 and the self-aminoacylation (biotinyl-Trp-oxazolone) was 0.451.
In the case of “AUUACCCUGGUAAUCGAGUGA [Fam2.1 aminoacylation ribozyme variant]”, the self-aminoacylation (biotinyl-Phe-oxazolone) is reported as 54.5, the self-aminoacylation (biotinyl-Ile-oxazolone) is reported as 3.7 and the self-aminoacylation (biotinyl-Met-oxazolone) is reported as 8.63. The self-aminoacylation (biotinyl-Val-oxazolone) was 3.82, the self-aminoacylation (biotinyl-Leu-oxazolone) was 8.46 and the self-aminoacylation (biotinyl-Trp-oxazolone) was 9.96.
“CAACUUCUAACAAUCGGUCUG [Fam1A.1 aminoacylation ribozyme variant]” showed a self-aminoacylation (biotinyl-Phe-oxazolone) of 1.44, a self-aminoacylation (biotinyl-Ile-oxazolone) of 0.904 and a self-aminoacylation (biotinyl-Met-oxazolone) of 0.722. It also gave a self-aminoacylation (biotinyl-Val-oxazolone) of 0.917, a self-aminoacylation (biotinyl-Leu-oxazolone) of 0.743 and a self-aminoacylation (biotinyl-Trp-oxazolone) of 1.05.
With “CUACUUCAAACAAUAGGUCUC [Fam1A.1 aminoacylation ribozyme variant]” the self-aminoacylation (biotinyl-Phe-oxazolone) was 1.03, the self-aminoacylation (biotinyl-Ile-oxazolone) was 0.666 and the self-aminoacylation (biotinyl-Met-oxazolone) was 0.535. It also gave a self-aminoacylation (biotinyl-Val-oxazolone) of 0.657, a self-aminoacylation (biotinyl-Leu-oxazolone) of 0.493 and a self-aminoacylation (biotinyl-Trp-oxazolone) of 0.459.
In the case of “CUACUCCAAACAAUAGGUCUG [Fam1A.1 aminoacylation ribozyme variant]”, the self-aminoacylation (biotinyl-Phe-oxazolone) is reported as 1.17, the self-aminoacylation (biotinyl-Ile-oxazolone) is reported as 0.839 and the self-aminoacylation (biotinyl-Met-oxazolone) is reported as 0.938. The self-aminoacylation (biotinyl-Val-oxazolone) was 0.776, the self-aminoacylation (biotinyl-Leu-oxazolone) was 0.744 and the self-aminoacylation (biotinyl-Trp-oxazolone) was 0.734.
For “AUUACCCUAGUCAUCGAGUCA [Fam2.1 aminoacylation ribozyme variant]”, the self-aminoacylation (biotinyl-Phe-oxazolone) was 0.47, the self-aminoacylation (biotinyl-Ile-oxazolone) was 0.724 and the self-aminoacylation (biotinyl-Met-oxazolone) was 0.631. The self-aminoacylation (biotinyl-Val-oxazolone) was 0.893, the self-aminoacylation (biotinyl-Leu-oxazolone) was 0.674 and the self-aminoacylation (biotinyl-Trp-oxazolone) was 0.546.
“UUACUUUAAACAAUCGGUCUG [Fam1A.1 aminoacylation ribozyme variant]” showed a self-aminoacylation (biotinyl-Phe-oxazolone) of 1.4, a self-aminoacylation (biotinyl-Ile-oxazolone) of 1.11 and a self-aminoacylation (biotinyl-Met-oxazolone) of 1.38. It also gave a self-aminoacylation (biotinyl-Val-oxazolone) of 1.11, a self-aminoacylation (biotinyl-Leu-oxazolone) of 0.878 and a self-aminoacylation (biotinyl-Trp-oxazolone) of 1.25.
“CCACUUCAAACAAUGGGUCUG [Fam1A.1 aminoacylation ribozyme variant]” was tested, and the self-aminoacylation (biotinyl-Phe-oxazolone) was 0.725, the self-aminoacylation (biotinyl-Ile-oxazolone) was 1.07 and the self-aminoacylation (biotinyl-Met-oxazolone) was 0.887. The self-aminoacylation (biotinyl-Val-oxazolone) was 1.03, the self-aminoacylation (biotinyl-Leu-oxazolone) was 0.97 and the self-aminoacylation (biotinyl-Trp-oxazolone) was 0.691.
In the case of “AUUCACCUAGGUCGUCGGGUG [Fam2.2 aminoacylation ribozyme variant]”, the self-aminoacylation (biotinyl-Phe-oxazolone) is reported as 9.32, the self-aminoacylation (biotinyl-Ile-oxazolone) is reported as 1.61 and the self-aminoacylation (biotinyl-Met-oxazolone) is reported as 1.84. The self-aminoacylation (biotinyl-Val-oxazolone) was 1.77, the self-aminoacylation (biotinyl-Leu-oxazolone) was 2.09 and the self-aminoacylation (biotinyl-Trp-oxazolone) was 1.66.
For “AUGCACCGAGGUCAUCGGGUG [Fam2.2 aminoacylation ribozyme variant]”, the self-aminoacylation (biotinyl-Phe-oxazolone) was 40.4, the self-aminoacylation (biotinyl-Ile-oxazolone) was 3.81 and the self-aminoacylation (biotinyl-Met-oxazolone) was 5.79. The self-aminoacylation (biotinyl-Val-oxazolone) was 3.66, the self-aminoacylation (biotinyl-Leu-oxazolone) was 6.58 and the self-aminoacylation (biotinyl-Trp-oxazolone) was 6.46.
